Source: article PMC11960969, “Mdga2 deficiency leads to an aberrant activation of BDNF/TrkB signaling that underlies autism-relevant synaptic and behavioral changes in mice” (PLOS Biology, 2025)

Tests used:
[1] = system: TrkB signaling (pTrkB, pAkt, pmTOR); assay: Immunoblotting of TrkB/Akt/mTOR phosphorylation in primary neurons transfected with MDGA2, ΔMAM or V930I; format: cell-based, mouse; details: Mdga2-/- neurons, n = 6, Fig 7F
Protocol: Fig 3 MDGA2 interacts with TrkB and suppresses TrkB activity. (A) Primary hippocampal neurons derived from Mdga2^ +/− (Het) mice and their wild-type (WT) littermates at DIV 7 were treated with different doses of BDNF for 30 min. Equal amounts of protein lysates were subjected to immunoprecipitation (IP) with an anti-TrkB antibody, followed by immunoblotting with an anti-phosphotyrosine (pTyr) antibody or the anti-TrkB antibody. The pTyr levels were quantified by densitometry, normalized to total TrkB levels, and then compared to those of WT controls. n = 3 per group. (B) WT mouse brain lysates were subjected to IP with an anti-MDGA2 antibody and a control IgG, and immunoblotted (IB) for the components indicated. mBDNF, mature BDNF; ImBDNF, immature BDNF. (C) Hippocampal neurons from WT mice at DIV 7 were immunostained with antibodies against MDGA2 (red) and TrkB (green), and then counter-stained with DAPI (blue). Images were acquired by a confocal microscope. Scale bar: 10 μm. (D) Surface plasmon resonance (SPR) analysis of the binding between recombinant MDGA2 protein and recombinant TrkB protein. TrkB was immobilized on a Biacore CM5 chip and tested for its binding with MDGA2 at the concentrations indicated. (E) Computer simulation of the binding mode of TrkB and MDGA2. The predicted binding domain of TrkB (the d5 domain) is highlighted by a red square and labeled in brown. The predicted binding domain of MDGA2 (the MAM domain) is highlighted by a red square and labeled in yellow. (F) HEK293T cells were co-transfected with TrkB-Flag and GFP-tagged full-length MDGA2 (MDGA2-GFP) or an MDGA2 deletion fragment lacking the entire MAM domain (ΔMAM-GFP). Cell lysates were subjected to IP with control IgG and antibodies against Flag or GFP, and immunoblotted for the components indicated. […] The scheme of MDGA2-ΔMAM is also shown. (G) HeLa cells were co-transfected with TrkB that is tagged with the N-terminal Venus fragment (TrkB-VN) and full-length MDGA2 or MDGA2-ΔMAM that are tagged with the C-terminal Venus fragment (MDGA2-VC or ΔMAM-VC) for 24 h. After immunostaining with antibodies against MDGA2/MDGA2-ΔMAM (pink) and TrkB (red), cells were observed by confocal microscopy. Venus signal (green) indicates the interaction between MDGA2 and TrkB. Schematic diagrams depicting the BiFC assay are also shown. Scale bars: 10 μm. (H, I) Equal amounts of protein lysates from primary neurons derived from Het, KO, and their WT littermate mice (H), and from WT primary neurons transfected with GFP control, MDGA2-GFP or ΔMAM-GFP (I) were subjected to IP with IgG and an anti-BDNF antibody, and then immunoblotted for the components indicated. Immunoprecipitated TrkB levels were quantified by densitometry, normalized to input levels, and compared to respective controls (set to one arbitrary units). n = 3 per group. (J) Neurons derived from KO mice were transfected with GFP control (Ctrl), MDGA2-GFP, or MDGA2-ΔMAM-GFP, and neurons derived from their WT littermates were transfected with GFP control (Ctrl). Equal amounts of protein lysates were subjected to immunoblotting for the proteins indicated. Levels of phosphorylated proteins were quantified by densitometry, normalized to respective total protein levels and compared to controls (set to one arbitrary units). n = 6 per group. Data represent mean ± SEM. P-values were determined by two-tailed unpaired Student t-test in (A) and one-way ANOVA with Tukey’s multiple comparisons test in (H, I, J). *p < 0.05, **p < 0.01, ***p < 0.001, ns: not significant. The data underlying this figure can be found in S1 Data, specifically in the sheet labeled “Figure 3”.
Fig 7 The autism spectrum disorder (ASD)-associated MDGA2 V930I mutation impairs the MDGA2-TrkB interaction and MDGA2’s inhibitory effect on the tyrosine kinase B (TrkB) signaling. (A) Schematic depiction of the WT human MDGA2 and its V930I mutation constructs that are tagged with GFP. […]

[2] = system: cell membrane localization in HeLa cells and mouse primary neurons; assay: Immunostaining of membrane localization of MDGA2, ΔMAM or V930I in transfected cells; format: cell-based; details: HeLa cells and mouse primary neurons, Fig 7B, 7C
Source text: (§1) Fig 7 The autism spectrum disorder (ASD)-associated MDGA2 V930I mutation impairs the MDGA2-TrkB interaction and MDGA2’s inhibitory effect on the tyrosine kinase B (TrkB) signaling. (A) Schematic depiction of the WT human MDGA2 and its V930I mutation constructs that are tagged with GFP. (B, C) HeLa cells (B) and mouse primary neurons (C) transfected with MDGA2 (green) or V930I (green) were immunostained with an antibody against the plasma membrane protein ATP1A1 (red) and then observed by confocal microscopy. Scale bars = 10 μm. (D) Cell surface expression of WT MDGA2 or V930I in transfected HeLa cells was determined by surface biotinylation assays. Biotinylated (cell surface) protein levels were quantified by densitometry and normalized to total protein levels for comparison (WT MDGA2 levels were set to one arbitrary unit). n = 4 experimental replicates. (E) Mouse primary neurons were transfected with MDGA2, V930I, or ΔMAM. […] Immunoprecipitated protein levels were quantified by densitometry, normalized to respective inputs, and compared to those transfected with MDGA2 (set to one arbitrary units). n = 4 experimental replicates. […] Levels of phosphorylated proteins were quantified by densitometry, normalized to respective total protein levels and compared to controls (set to one arbitrary units). n = 6 experimental replicates. […]

TrkB = assay: Co-IP of MDGA2, V930I or ΔMAM with TrkB in mouse primary neurons; format: binding; details: n = 4, Fig 7E
Source text: as §1

HeLa cells = assay: Cell surface biotinylation of MDGA2 or V930I in transfected HeLa cells; format: cell-based; details: n = 4, Fig 7D
Source text: as §1

B1: MDGA2-V930I: MDGA2 with ASD-associated missense mutation V930I, GFP-tagged (protein)
chain: PPTVRIVHSGLACNIEEERYSERVYTIREGETLELTCLVTGHPRPQIRWTKTAGSASDRFQDSSVFNETLRITNIQRHQGGRYYCKAENGLGSPAIKSIRVDVYYLDDPVVTVHQSIGEAKEQFYYERTVFLRCVANSNPPVRYSWRRGQEVLLQGSDKGVEIYEPFFTQGETKILKLKNLRPQDYANYSCIASVRNVCNIPDKMVSFRLSNKTASPSIKLLVDDPIVVNPGEAITLVCVTTGGEPAPSLTWVRSFGTLPEKTVLNGGTLTIPAITSDDAGTYSCIANNNVGNPAKKSTNIIVRALKKGRFWITPDPYHKDDNIQIGREVKISCQVEAVPSEELTFSWFKNGRPLRSSERMVITQTDPDVSPGTTNLDIIDLKFTDFGTYTCVASLKGGGISDISIDVNISSSTVPPNLTVPQEKSPLVTREGDTIELQCQVTGKPKPIILWSRADKEVAMPDGSMQMESYDGTLRIVNVSREMSGMYRCQTSQYNGFNVKPREALVQLIVQYPPAVEPAFLEIRQGQDRSVTMSCRVLRAYPIRVLTYEWRLGNKLLRTGQFDSQEYTEYAVKSLSNENYGVYNCSIINEAGAGRCSFLVTGKAYAPEFYYDTYNPVWQNRHRVYSYSLQWTQMNPDAVDRIVAYRLGIRQAGQQRWWEQEIKINGNIQKGELITYNLTELIKPEAYEVRLTPLTKFGEGDSTIRVIKYSAPVNPHLREFHCGFEDGNICLFTQDDTDNFDWTKQSTATRNTKYTPNTGPNADRSGSKEGFYMYIETSRPRLEGEKARLLSPVFSIAPKNPYGPTNTAYCFSFFYHMYGQHIGVLNVYLRLKGQTTIENPLWSSSGNKGQRWNEAHVNIYPITSFQLIFEGIRGPGIEGDIAIDDVSIAEGECAKQDLATKNSID
modifications: left off: GFP, end not stated, kept
notes: MDGA2 with ASD-associated missense mutation V930I, GFP-tagged
aberrant activation of TrkB/Akt signaling upon re-expression [1]: did not inhibit the aberrant activation of the TrkB/Akt signaling as WT MDGA2 did | cell surface distribution (immunostaining) [2]: cell surface distribution was much less than that of WT MDGA2 | interaction with TrkB (IP) vs WT MDGA2 (TrkB): significantly decreased compared to that of WT MDGA2 | cell surface levels (biotinylation) (HeLa cells): significantly lower than those of WT MDGA2
